The series deals with ATP. Put plainly: switch fluorescence ratio, 500 uM ATP over buffer (Cy3 cluster intensity, sum of 5 cycles each) (fold (ratio)); higher = stronger signal-on switching upon ATP binding; sequences stand for … in TCGTCGGCAGCGTCAGATGTGTATAAGAGACAGTTTTTTTTTTTTTTTTTTTTTTTTT…TC. The note with it: aptamer strand: ATP DNA aptamer (quencher-CACCTGGGGGAGTATTGCGGAGGAAGG + anchor), 100 nM annealed; ATP concentration: 500 uM. The method in brief: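 The fluorescence ratio divides summed target-cycle Cy3 intensity by summed buffer-cycle Cy3 intensity for each cluster and is averaged per switch-domain sequence. Cy3-labelled switching-strand clusters on a modified Illumina MiSeq flow-cell were annealed to 100 nM quencher-labelled ATP aptamer, then imaged in selection buffer and again after 15 min with 500 uM ATP at 22 °C. Five such cycles were run, with NaOH stripping and re-annealing between them, and clusters outside 100-1000 RFU were excluded.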

± gives the standard deviation of the averaged measurements.
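Also: ATP exposure 15 min at 22 °C before imaging.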

With TTGTAGGCGA, the switch fluorescence ratio was 1.09 ± 0.0026.
On to GTTTTAGGAG, for which the switch fluorescence ratio is 0.995 ± 0.043.
As to GCCTTTGCAT, the switch fluorescence ratio worked out at 1.04 ± 0.039.
The value for AGCTAGGCGC was 1.01 ± 0.027; that for CGTTGTGGCA was 1 ± 0.028.
The value for TTCGTATCAG was 1.02 ± 0.035; that for CGTCTTTAGA was 0.987 ± 0.01.
In the case of GAGGCTGGGA, the switch fluorescence ratio was 0.988 ± 0.032.
Take TAATATAGGT: the switch fluorescence ratio amounted to 1.018 ± 0.0097.
As to ATCAGGTGGT, the switch fluorescence ratio is 1.19 ± 0.036.
Next, TCGAGGTCGA: 1.01 ± 0.039; TGTGCGACGG: 0.989 ± 0.021; CGATTGCTGG: 0.989 ± 0.069.
The value for TTAACTTTCA was 1.04 ± 0.029; that for CCGAGGAATG was 1.106 ± 0.0083.
Next, TGAAGTCG: 0.999 ± 0.027.
On to GGTTGAGTG, for which the switch fluorescence ratio turned out to be 0.977 ± 0.0033.
The value for GGGGATAACA was 1.028 ± 0.00063; that for AACGGTACCG was 0.981 ± 0.014; that for TAGGGCGGGG was 0.988 ± 0.025.
Next, ATGCGCCCTG: 1 ± 0.015; TTTAATTATT: 1.02 ± 0.0053.
For the sequence TGAGTATTTA, the switch fluorescence ratio was 0.993 ± 0.057.
AGGGCATAGG: the switch fluorescence ratio came out at 0.9652 ± 0.0066.
Next, ATTTGTTGCT: 0.981 ± 0.025; TCAGCCTAGG: 1.02 ± 0.023; ACCCTCGGGG: 1.0015 ± 0.00096.
For the sequence ATCGGGGGCT, the switch fluorescence ratio was 0.98 ± 0.038.
Next, TCGGGGCACG: 0.993 ± 0.052.
Next, TCTGTGCTGG: 0.98 ± 0.024; TCGGGGGTTC: 1.06 ± 0.027; TTGCTGATGC: 1.02 ± 0.039.
Next, AACTTTGCAG: 1.016 ± 0.0052; GAGCGGGTAC: 1.41 ± 0.03.
Regarding TATGGTAGC, the switch fluorescence ratio is 0.989 ± 0.048.
Next, TGATGGGGTC: 0.991 ± 0.013; AAACGGGGCG: 0.9719 ± 0.0047.
For TTCAAGGGGT, the switch fluorescence ratio came to 0.994 ± 0.025.
Take ACGCGACACC: the switch fluorescence ratio came to 1.25 ± 0.058.
The value for TATAACGTTA was 0.993 ± 0.015; that for TCTGGGGGTG was 1.02 ± 0.059; that for ACTAGGGTTG was 0.993 ± 0.02.
Next, TTGCAAGGCG: 1 ± 0.062; GATACTTTTT: 1.01 ± 0.029.
For the sequence GTGGTCGCTG, the switch fluorescence ratio is 0.982 ± 0.019.
Take ATATGGTGTT: the switch fluorescence ratio is 1.01 ± 0.025.
In the case of CGTGGTGGGG, the switch fluorescence ratio is 0.992 ± 0.015.
The value for ACTGATGAAG was 0.991 ± 0.049; that for TTTGAGACGT was 1.02 ± 0.041.
Turning to AGGTTAGAGG, the switch fluorescence ratio stood at 0.993 ± 0.016.
The value for TTGGGGTTTA was 1.03 ± 0.026; that for GTTTGTAGTT was 0.968 ± 0.037.
For the sequence ATTATGGGGG, the switch fluorescence ratio came out at 0.996 ± 0.036.
Regarding GACGGTTTAC, the switch fluorescence ratio is 1.65 ± 0.023.
The value for ACGAGTGTCG was 0.964 ± 0.04; that for AGCGGGGCGT was 1.01 ± 0.014.
The value for ACGGGATTAA was 1.04 ± 0.051; that for GCTTTCGATG was 1.02 ± 0.02.
As for AAAGGGTTGG, the switch fluorescence ratio came to 1.02 ± 0.02.
The value for AATGCAACAG was 1.15 ± 0.056; that for AGCTGGGGTT was 0.9962 ± 0.0062; that for TTAAGGAATT was 0.999 ± 0.036.
The value for GAAGTCGTAG was 0.96 ± 0.039; that for GCTAATATGG was 0.998 ± 0.044.
On to TACAGCTTCT, for which the switch fluorescence ratio was determined as 1.005 ± 0.0065.
The value for CGAGCTTCGT was 1.01 ± 0.034; that for TTGTTTATTC was 1.02 ± 0.071.
Next, CTGTTGAATT: 1.01 ± 0.046; TGCTACTGC: 1.03 ± 0.015.
For the sequence CGGGCTGTTT, the switch fluorescence ratio was 0.977 ± 0.013.
As for ACTAATCGTG, the switch fluorescence ratio is 1.02 ± 0.011.
The value for TTATCTTAAT was 1.01 ± 0.015.
Next, TGGGTTTTAT: 0.9954 ± 0.0094; CTAATATTAG: 1 ± 0.086; GAGGAGCGTT: 0.9804 ± 0.007.
Next, CAGGTTTCGG: 0.987 ± 0.022; CTTGTGGTGT: 0.973 ± 0.019.
Take TTGATTTAAA: the switch fluorescence ratio is 1.01 ± 0.0047.
Next, AATTAGGTTT: 1 ± 0.035; GGGTGGGCAT: 1.03 ± 0.013.
The value for CGGGTACGGT was 0.992 ± 0.022; that for TAGTGGTTAG was 0.991 ± 0.025; that for CGGGGAGGGC was 1.04 ± 0.071.
Turning to AGGTTTTTCA, the switch fluorescence ratio came out at 0.983 ± 0.017.
Next, TTCGTATCAT: 1.049 ± 0.0097.
With AATTTTAGAA, the switch fluorescence ratio was determined as 1 ± 0.053.
The value for GAAAAGGGGT was 1 ± 0.028.
The value for TAGGATTCTC was 0.979 ± 0.023.
As for GCCAGAGAGT, the switch fluorescence ratio stood at 1.01 ± 0.012.
For GATAGGGCAT, the switch fluorescence ratio came to 1.02 ± 0.012.
Next, TAACTGCATT: 1.16 ± 0.14.
Next, ATTTGGCGT: 1.01 ± 0.018; TTTTTAAGTT: 1 ± 0.028; TATCGTAGAG: 1.011 ± 0.0072.
GAATTACTAT: the switch fluorescence ratio worked out at 1.038 ± 0.0087.
The value for CAATCCTGGG was 0.989 ± 0.034; that for GTGATTCGGG was 0.972 ± 0.013.
Consider AGACCGAGAC, for which the switch fluorescence ratio was determined as 1.18 ± 0.079.
For the sequence AGTACCATGG, the switch fluorescence ratio amounted to 1.01 ± 0.06.
The value for AGGGAGAGTT was 1.02 ± 0.017.
The value for GTCATTGATT was 1.01 ± 0.011; that for AATTGTGAAA was 1.01 ± 0.013; that for AGGCTGCAG was 0.961 ± 0.037.
The value for AATTTCTCGT was 0.996 ± 0.016; that for TTATATTAGT was 0.9919 ± 0.0056; that for GTGTTAGCTA was 1 ± 0.011.
On to AAGTTTTCCG, for which the switch fluorescence ratio came to 0.964 ± 0.062.
As to ATCTGGTCAT, the switch fluorescence ratio came to 0.972 ± 0.016.
For AAGATAGTAC, the switch fluorescence ratio was 1.04 ± 0.024.
Next, GGTTTAAGCA: 0.982 ± 0.034.
As for GGCGTTTTTG, the switch fluorescence ratio was 1.02 ± 0.046.
Next, ATTAAGGA: 1 ± 0.051; TGGCATATTT: 1.05 ± 0.051.
Turning to TTGTTAGCCC, the switch fluorescence ratio was 1.026 ± 0.0026.
Regarding TGGGGTTTTT, the switch fluorescence ratio stood at 0.984 ± 0.026.
The value for ACCGAGGCTT was 1.45 ± 0.051.
Take AAAAAGATGA: the switch fluorescence ratio is 0.9626 ± 0.0028.
In the case of TTCCTAAATT, the switch fluorescence ratio was 0.9979 ± 0.0034.
Next, AATCATGGT: 0.978 ± 0.019; GGGAGGGCAA: 0.986 ± 0.013.

These data come from the supplement of paper PMC10126150.
